The labels stand for the following.
B1: Speckle-type POZ protein (SPOP) wild type, residues 28-359 (domain or fragment)
chain: KVVKFSYMWTINNFSFCREEMGEVIKSSTFSSGANDKLKWCLRVNPKGLDEESKDYLSLYLLLVSCPKSEVRAKFKFSILNAKGEETKAMESQRAYRFVQGKDWGFKKFIRRDFLLDEANGLLPDDKLTLFCEVSVVQDSVNISGQNTMNMVKVPECRLADELGGLWENSRFTDCCLCVAGQEFQAHKAILAARSPVFSAMFEHEMEESKKNRVEINDVEPEVFKEMMCFIYTGKAPNLDKMADDLLAAADKYALERLKVMCEDALCSNLSVENAAEILILADLHSADQLKTQAVDFINYHASDVLETSGWKSMVVSHPHLVAEAYRSLASA
B3: SPOP R354H, residues 28-359 (domain or fragment)
chain: KVVKFSYMWTINNFSFCREEMGEVIKSSTFSSGANDKLKWCLRVNPKGLDEESKDYLSLYLLLVSCPKSEVRAKFKFSILNAKGEETKAMESQRAYRFVQGKDWGFKKFIRRDFLLDEANGLLPDDKLTLFCEVSVVQDSVNISGQNTMNMVKVPECRLADELGGLWENSRFTDCCLCVAGQEFQAHKAILAARSPVFSAMFEHEMEESKKNRVEINDVEPEVFKEMMCFIYTGKAPNLDKMADDLLAAADKYALERLKVMCEDALCSNLSVENAAEILILADLHSADQLKTQAVDFINYHASDVLETSGWKSMVVSHPHLVAEAYHSLASA

Data set [1] concerns the target fluorescently labeled peptide derived from a SPOP-binding motif from the substrate Puckered. In words: fluorescence polarisation. On the technique in general: Polarisation of emitted light reports the rotation of a fluorescent probe.
The data set “CG-MALS” concerns the molecule itself. Put plainly: CG-MALS.
The target of data set [2] is B3. In words: fluorescence polarisation.
Data set [3] concerns the target B1. Put plainly: fluorescence polarisation.
Data set [4] concerns the target SPOP R221C, residues 28-359 (human, UniProt O43791 28-359, R221C). Put plainly: fluorescence polarisation.

The values below come from publication PMC10054981 (bioRxiv, 2023).

As a reminder, the Kd is the equilibrium constant for the complex coming apart. A lower Kd goes with tighter binding. For “SPOP R354H, residues 28-359 (from UniProt O43791 28-359) (domain or fragment)”, the Kd in data set [1] amounted to 5.1 µM. On to “SPOP mutBACK (Y353E), residues 28-359 (from UniProt O43791 28-359) (domain or fragment)”, for which the dissociation constant (Kd) in data set [1] stood at 4.3 µM. The Kd values of the last two molecules are within 1.5-fold of each other.

With “Speckle-type POZ protein (SPOP) wild type, residues 28-359 (from UniProt O43791 28-359) (domain or fragment)”, the Kd in data set [1] was 9.8 µM. Against the preceding molecule, the Kd is about 2.3-fold higher. In data set [1], “SPOP R221C, residues 28-359 (from UniProt O43791 28-359) (domain or fragment)” showed a Kd of 5.9 µM. Molecule B1 registered a Kd in the data set “CG-MALS” of 2.7 µM.

B2: C-terminal intrinsically disordered region (IDR) of DAXX (cDAXX), fluorescently labeled (domain or fragment)
chain: SPMSSLQISNEKNLEPGKQISRSSGEQQNKGRIVSPSLLSEEPLAPSSIDAESNGEQPEELTLEEESPVSQLFELEIEALPLDTPSSVETDISSSRKQSEEPFTTVLENGAGMVSSTSFNGGVSPHNWGDSGPPCKKSRKEKKQTGSGPLGNSYVERQRSVHEKNGKKICTLPSPPSPLASLAPVADSSTRVDSPSHGLVTSSLCIPSPARLSQTPHSQPPRPGTCKTSVATQCDPEEIIVLSDSD
In the case of B2, the equilibrium dissociation constant (Kd) in data set [2] was 3 µM; in data set [3] it was 1.2 µM; in data set [4], 3.2 µM. Molecule B3 came in with an equilibrium dissociation constant (Kd) in the data set “CG-MALS” of 26.9 µM.
